Data from the supplement of paper PMC10567573.

B1: C2CD2L (parent)
chain: LTLKVLRSSSCGDTELLGQATLPV
B2: DFFB (parent)
chain: TLVEAIKEQDGREVDWEYFYGLLF

Variants of: B1
Assay: protein stability index of a GFP-peptide fusion (GPS, HEK-293T) (PSI 1-6); higher = more stable
Details: c terminus: a fixed tail appended
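Note: lentivirally expressed fusions sorted by FACS into six bins by GFP to DsRed ratio, PSI derived from sequencing read proportions per bin multiplied by bin number.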

Protein stability index: each site, then its substitutions
L1: A 4.09, D 3.35, C 2.58, E 2.76

Variants of: B2
Assay: as above
Details: c terminus: a fixed tail appended

Protein stability index of substitutions, site by site:
A5: Y 2.73, W 2.84, M 2.35, R 2.29, K 1.89, N 2.11, S 2.15, T 2.88, P 2.74, V 1.48, Q 2.4
Y18: N 2.44, T 1.9, D 2.16, A 1.92, I 2.06, F 1.76, M 1.94, V 2.34, R 2.2, L 1.25, S 2.24, W 1.76, H 3.81, G 1.71, Q 2.18
E13: T 1.98, K 3.03, P 1.67, C 1.22, G 3.05, F 1.85, Y 3.29, M 2.02, D 2.1, V 2.07, A 1.74, W 2.27, N 1.79, S 1.76, L 1.57, I 2.36, R 1.81, H 1.84
L23: F 2.26, V 1.92, W 2.21, S 2.1, D 2, A 1.86, K 2.03, P 2.18, I 2.24, H 2.07, C 1.6, E 2.19, M 2.12, R 2.5, Q 2.37, Y 2.86
G11: C 2.72, E 2.13, Q 2.04, P 2.44, A 1.84, M 2.13, V 2.92, T 2.28, N 2.13, F 1.02, K 1.61, Y 1.88, S 1.7, H 2.04
D15: E 3.52, R 1.75, W 1.88, A 1.44, N 1.9, L 1.59, G 1.9, F 1.93, T 2.08, Q 1.78, S 2.12, M 1.69, C 1.9, Y 1.19, P 2.2, I 2.15, H 1.51
E17: R 2.46, N 1.4, A 2.06, Y 1.67, G 2.38, V 2.24, F 1.6, L 2.18, I 1.48, Q 2.21, D 2.52, K 3.25, P 1.33, M 1.78, H 2.08, T 2.42
F19: N 2.24, S 2.68, W 2.39, R 2.31, A 1.9, K 3.22, I 1.55, Q 3.44, M 2.17, H 2.5, D 2.76, C 2.04, P 3.01, T 2.69, V 1.42, Y 2.19, L 2.1
R12: N 2.42, F 1.48, P 2.16, Y 2.59, T 1.92, G 1.74, W 1.72, A 1.32, C 1.91, V 2.07, S 1.84, H 2.2, M 2.18, I 1.56, K 2.41, E 2.44, Q 2.41
Y20: R 2.67, T 1.54, G 1.79, M 2.64, I 1.78, L 1.53, D 2.36, N 2.25, Q 2.07, H 2.03, S 1.33, V 2.42, W 1.72, K 1.6, F 1.93, E 1.67, P 2.67, A 2.03, C 1.92
F24: C 2.23, I 1.93, L 1.7, S 2.52, N 1.95, H 2.2, P 2.53, Y 2.31, K 1.79, T 2.42, Q 2.27, D 2.21, W 1.07, A 1.69, R 1.63, E 2.22
I6: E 2.58, Q 2.32, P 2.17, T 2.01, F 2.38, Y 1.81, V 2.25, M 1.94, S 1.89, W 1.38, N 2.2, A 2.59, K 2.2, C 2.24, H 2.58, R 2.16
W16: M 2.05, S 2.84, Y 1.72, L 1.66, T 3.12, R 2.3, D 2.53, E 2.19, C 2.46, H 1.58, G 2.44, P 2.44, N 2.63, F 1.93, Q 2.17, A 2.06, V 2.61, K 1.87, I 1.93
K7: C 1.98, S 1.31, E 2.34, R 1.03, M 1.72, W 2.15, N 1.51, G 1.79, T 2.19, F 2.99, A 2.31, H 1.9, V 1.64, Y 3.52, P 2.3, I 2.28, D 1.58, Q 2.16
Q9: S 1.66, D 1.97, Y 1.08, N 1.57, G 1.26, M 1.74, I 1.87, A 1.37, F 2.73, W 2.59, H 2.33, K 1.55, P 3, L 3.05, E 2.26, T 2, R 2.27, V 1.24
L22: R 1.8, Q 2.94, H 2.43, Y 1.86, F 1.52, T 2.58, S 2.49, D 2.62, W 1.1, P 3.28, I 1.97, A 2, C 2.04, V 1.96, M 1.85, E 2.51
V14: T 2.36, I 2.05, F 1.51, D 1.28, L 2.28, P 1.76, A 2.25, C 1.5, S 2.24, Q 1.7, E 2.37, N 2.36, R 1.65, G 2.12, M 1.98, W 2.12, H 1.91, K 1.23, Y 2.18
D10: C 1.99, H 1.99, A 2.01, N 1.86, G 2.66, R 1.41, S 2.37, V 1.73, F 1.91, P 2.32, Y 1.92, K 2.12, M 1.35, L 1.91, T 1.59, Q 1.71
E8: K 1.83, H 2.47, M 1.62, N 2.53, R 2.67, G 2.37, F 1.1, Q 1.43, A 1.88, L 2.82, D 2.08, S 1.72, I 1.3, P 2.38, Y 2.48, V 1.66
G21: T 1.88, R 1.84, P 1.46, K 2.31, H 2.37, C 1.72, M 2.26, W 1.83, Q 2.25, V 1.08, S 2, E 1.93, L 1.35, I 1.34, Y 1.53, N 1.87
